From patent US20250019450A1 (DIAGONAL THERAPEUTICS, published 2025) come the findings set out here.

The target of test [1] is human IL-12 receptor (IL-12Rβ1 and IL-12Rβ2) on HEK-Blue IL-12 cells (human, UniProt P42701 24-662; Q99665 24-862). In words: cell-based or functional assay.
The target in test [2] is human IL-12Rβ1, Acro (BLI analyte) (human, UniProt P42701 24-545). In words: BLI (Octet), antibody on AHC tip. In general terms: BLI is a label-free optical method that tracks binding on a fibre tip over time.
Test [3] has as its target T1, human IL-12Rβ2, Acro (BLI analyte) (human, UniProt Q99665 24-622, limits assumed).
T1 sequence (looked up): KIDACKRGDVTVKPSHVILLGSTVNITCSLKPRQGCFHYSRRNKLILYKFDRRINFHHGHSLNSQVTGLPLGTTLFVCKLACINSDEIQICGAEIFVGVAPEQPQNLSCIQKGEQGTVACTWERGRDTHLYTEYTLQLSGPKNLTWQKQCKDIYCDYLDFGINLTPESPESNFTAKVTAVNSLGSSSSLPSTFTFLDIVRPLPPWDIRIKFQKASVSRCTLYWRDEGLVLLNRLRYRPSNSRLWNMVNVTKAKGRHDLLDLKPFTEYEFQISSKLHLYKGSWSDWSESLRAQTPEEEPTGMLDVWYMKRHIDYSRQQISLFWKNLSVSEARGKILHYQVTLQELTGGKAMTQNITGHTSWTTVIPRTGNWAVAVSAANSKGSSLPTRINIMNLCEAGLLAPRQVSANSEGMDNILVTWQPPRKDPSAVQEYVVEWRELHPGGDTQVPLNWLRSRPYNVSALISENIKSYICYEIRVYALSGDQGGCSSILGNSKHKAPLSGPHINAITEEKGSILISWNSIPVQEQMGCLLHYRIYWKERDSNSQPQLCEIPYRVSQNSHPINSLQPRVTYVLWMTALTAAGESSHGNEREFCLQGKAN
Briefly: BLI (Octet), antibody on AHC tip.

B1: DGL601 (bispecific antibody, human IgG1, lambda)
heavy 1: not shown
heavy 2: QVQLVESGGGLVQPGGSLRLSCAASGFTFSNYAMSWVRQAPGKGLEWVSAINSDGTSTSYADSVKGQFTISRDNAKNTLYLQMNSLKPEDTAVYYCTKWEGDTDSDYKFKDYWGQGTQVTVEPKSSDKTHTCPPCPAPEAAGAPSVFLFPPKPKDTLMISRTPEVTCVVVDVSHEDPEVKFNWYVDGVEVHNAKTKPREEQYNSTYRVVSVLTVLHQDWLNGKEYKCKVSNKALPAPIEKTISKAKGQPREPQVCTLPPSRDELTKNQVSLSCAVKGFYPSDIAVEWESNGQPENNYKTTPPVLDSDGSFFLVSKLTVDKSRWQQGNVFSCSVMHEALHNRFTQKSLSLSPG
light: SSELTQDPAVSVALGQTVRITCQGDSLSSYYAGWYQQKPGQAPVLVIYGKNNRPSGIPDRFSGSSSEDTASLTITGAQAEDEADYYCNSRDSSDNHLVFGGGTKLTVLGQPKAAPSVTLFPPSSEELQANKATLVCLISDFYPGAVTVAWKADSSPVKAGVETTTPSKQSNNKYAASSYLSLTPEQWKSHRSYSCQVTHEGSTVEKTVAPTECS
notes: 85801_04M04A x 19B2
Take B1: in test [1], the EC50 (in general, the concentration needed to bring the measured effect to its halfway point) is 6.6e-11 M (implied) and the “Max Absorbance” value was 0.79. In addition, the Kd (usually a measure of binding affinity in units of concentration) in test [2] was determined as 1.63 nM. Moreover, the affinity in test [3], expressed as Kd, was 0.682 nM.

B2: DGL424 (bispecific antibody, human IgG1, lambda)
heavy 1: not shown
heavy 2: QVTLRESGPALVKPTQTLTLTCTFSGFSLSTSGMCVSWIRQPPGKALEWLALIYWDDDKYYSTSLKTRLTISKDTSKNQVVLTMTNMDPVDTATYYCARMRRGIEAFDIWGQGTMVTVFSASTKGPSVFPLAPSSKSTSGGTAALGCLVKDYFPEPVTVSWNSGALTSGVHTFPAVLQSSGLYSLSSVVTVPSSSLGTQTYICNVNHKPSNTKVDKKVEPKSCDKTHTCPPCPAPEAAGAPSVFLFPPKPKDTLMISRTPEVTCVVVDVSHEDPEVKFNWYVDGVEVHNAKTKPREEQYNSTYRVVSVLTVLHQDWLNGKEYKCKVSNKALPAPIEKTISKAKGQPREPQVCTLPPSRDELTKNQVSLSCAVKGFYPSDIAVEWESNGQPENNYKTTPPVLDSDGSFFLVSKLTVDKSRWQQGNVFSCSVMHEALHNRFTQKSLSLSPG
light: QSVLTQPPSVSGAPGQRVTISCTGSSSNIGAGYDVHWYQQLPGTAPKLLIFGYSNRPSGVPVRFSGSKSGTSASLAITGLLAEDEADFYCQSFDISLTGWVFGGGTKLTVLGQPKAAPSVTLFPPSSEELQANKATLVCLISDFYPGAVTVAWKADSSPVKAGVETTTPSKQSNNKYAASSYLSLTPEQWKSHRSYSCQVTHEGSTVEKTVAPTECS
notes: 54B1 x 85802_10K12A
Consider B2, for which, in test [1], the EC50 is 2.6e-10 M (implied) and the “Max Absorbance” value was found to be 1.49. The molecule also yielded a Kd in test [3] of 0.726 nM.

B3: DGL516 (bispecific antibody, V domains shown)
V domain 1: QVQLVESGGGLAQAGGSLRLSCAASGRTFSNDDMAWFRQAPGKEREFVAHIDRNAASTNYADSVKGRFTISRDNAKNTVYLQMTRLKPEDTAVYYCAADPDHFGTTWYQQYTYWGPGTQVTVEP
V domain 2: QVQLVESGGGLVQPGGSLRLSCAASGFTFEPYDMSWFRQAPGKGPEWVSAIDKGGGAGATYYADSVKGRFTISRDNAKKTLYLQMKSLKPEDTAVYYCAITAGPYSDSTPRVAYRGEGTQVTVEP
notes: 97B1 x 93B2
Turning to B3, the EC50 in test [1] was 6.5e-11 M (implied). Besides, the “Max Absorbance” value in test [1] is 1.05. Moreover, the Kd is 27.3 nM in test [2] and 3.41 nM in test [3].

B4: DGL605 (bispecific antibody, V domains shown)
V domain 1: QLQLVESGGGLVQPGGSLRLSCAASGFTFSSYGMSWVRQAPGKGLEWVSYISAGGGTTTYVDFVKGRFTISRDNAKNMLYLQMNSLKPEDTAVYYCVHAADGSRGQGTQVTVEP
V domain 2: B3 V domain 2
notes: 238B1 x 93B2
B4: the EC50 in test [1] is 4.6e-10 M (implied). Moreover, the “Max Absorbance” value in test [1] was 0.74. In addition, the Kd in test [2] is 2.25 nM; in test [3], 1.87 nM.

B5: DGL514 (bispecific antibody, V domains shown)
V domain 1: B3 V domain 1
V domain 2: QVQLVESGGGLVQPGGSLRLSCAASGFTFSNYAMSWIRQGPERGFEWVSRINSGGGTTSYADSVKGRFTISRDNAKNTLYLQMNSLKPEDTAVYYCAKHSHPDYSSNYYRPGQGTQVTVEP
notes: 97B1 x 67B2
For the molecule B5, in test [1], the EC50 was 3.5e-11 M (implied) and the “Max Absorbance” value turned out to be 0.85. Binding in test [2] was characterised by a dissociation constant (Kd) of 9.86 nM. Moreover, in test [3], the Kd was 5.48 nM.

B6: DGL569 (bispecific antibody, V domains shown)
V domain 1: QVQLVESGGGLVQAGGSLRLSCAASRSISSFNEMAWYRQAPGEQRELVATIVSTVGFTNYADSVKGRFTISRDNAKNTVYLQMNSLKAEDTAVYYCNARRISTDYWGQGTQVTVEP
V domain 2: QVQLVESGGGLVQPGGSLRLSCAASGFTFSNYAMSWVRQAPGKGLEWVSAINSDGTSTSYADSVKGQFTISRDNAKNTLYLQMNSLKPEDTAVYYCTKWEGDTDSDYKFKDYWGQGTQVTVEP
notes: 233B1 x 19B2
As to B6, in test [1], the EC50 is 5.2e-09 M (implied) and the “Max Absorbance” value turned out to be 1.19. The molecule also displayed a Kd in test [2] of 1.7 nM. Moreover, the Kd in test [3] was found to be 0.723 nM.

B7: DGL568 (bispecific antibody, V domains shown)
V domain 1: B6 V domain 1
V domain 2: QVQLVESGGGLVRPGGSLRLSCAASGFTFSSNGMHWFRQAPGKGLEWVSSIGSGGTSIYYADSVKGRFTISRDNAKNTLYLQMNSLKSDDTAVYYCSKEVTGATRGQGTQVTVEP
notes: 233B1 x 13B2
On to B7, for which, in test [1], the EC50 is over 100 nM and the “Max Absorbance” value amounted to 0.91. This molecule registered a Kd in test [2] of 1.78 nM. Moreover, in test [3], the Kd came to 2.34 nM.

B8: DGL570 (bispecific antibody, V domains shown)
V domain 1: B6 V domain 1
V domain 2: QVQLVESGGGLVQPGGSLRLSCAASGFTFSSKAMHWFRQAPGKGLEWVSSINSGGAITYYKDSVKGRFTVSRDNAKNILYLEMNSLKPEDTALYYCATDTDGRTRGQGTQVTVEP
notes: 233B1 x 64B2
In the case of B8, the EC50 in test [1] was over 100 nM. The “Max Absorbance” value in test [1] was 1.44. The Kd in test [2] amounted to 1.38 nM; in test [3], 7.66 nM.

B9: DGL572 (bispecific antibody, V domains shown)
V domain 1: B6 V domain 1
V domain 2: B3 V domain 2
notes: 233B1 x 93B2
As for B9, the concentration for a half-maximal effect (EC50) in test [1] was 1.2e-08 M (implied). The “Max Absorbance” value in test [1] came to 1.05. For the same molecule, the Kd turned out to be 1.48 nM in test [2] and 2.41 nM in test [3].

B10: DGL495 (bispecific antibody, V domains shown)
V domain 1: EVQLVESGGGLVQAGGSLRLSCAASGLTFRNYAMAWFRQAPGKEREFVAGITWGGGLTHYVDSVKGRFTISRDNGKNTVYLQMNSLKSEDTAVYYCAGKTQGSTWYHLTPDGYDYWGQGTQVTVEP
V domain 2: B6 V domain 2
With B10, in test [1], the EC50 is 6.4e-10 M (implied) and the “Max Absorbance” value amounted to 0.96. Moreover, the Kd in test [2] amounted to 10.7 nM. In test [3], this molecule returned a dissociation constant Kd of 0.77 nM.

B11: DGL481 (bispecific antibody, V domains shown)
V domain 1: QVQLVESGGGLVQAGGSLRLSCAASARIFNSYAVAWFRQTPGKEREFVASISWSGGSTNYADSVKGRFTISRDNAKNTVFLQMNSLKPADTAVYYCAADRNYYPSVLGKYTYWGQGTQVTVEP
V domain 2: B6 V domain 2
notes: 67B1 x 19B2
Regarding B11, in test [1], the EC50 was 3.3e-10 M (implied) and the “Max Absorbance” value was 0.93. For the same molecule, in test [2], binding was put at a Kd of 7.17 nM. Also, the Kd in test [3] came to 0.772 nM.

B12: DGL534 (bispecific antibody, V domains shown)
V domain 1: QVQLVESGGGLVQAGGSLRLSCLASGRTSNYFMGWFRQAPGKEREFVAAISRSGGGTWYADSVKGRFAISRDNAKNTVNLQMNSLKREDTAVYYCAADRRTGTSVYTVDEYDYWGQGTQVTVEP
V domain 2: B6 V domain 2
notes: 115B1 x 19B2
Consider B12, for which, in test [1], the EC50 is 4.5e-10 M (implied) and the “Max Absorbance” value was 0.69. The molecule further yielded a Kd in test [2] of 59.5 nM. The molecule also registered a Kd in test [3] of 0.706 nM.

B13: DGL606 (bispecific antibody, V domains shown)
V domain 1: B4 V domain 1
V domain 2: QVQLEESGGGLVQAGGSLRLSCAASGRTFSSYVVGWFRQAPGKEREFVGRISWSGARTYYADSVEGRFTISRDNAKNTVYLQMNSLKPEDTAVYYCAADLKWEVLLSEHYEYWGQGTQVTVEP
notes: 238B1 x 219B2
For the molecule B13, in test [1], the EC50 was 8.8e-09 M (implied) and the “Max Absorbance” value amounted to 0.92. In test [2], this molecule displayed a Kd of 2.68 nM. The same molecule returned a Kd in test [3] of 6.03 nM.
